B1: 2K2A (parent)
chain: ELREAFRLYDKEGNGYISTDVMREILAELDETLSSEDLDAMIDEIDADGSGTVDFEEFMGVMT
B2: EEHEE_rd4_0763 (parent)
chain: LTVHVGNVTYHFDNPEQAEEWAKRMAKKYQGQIHVKDGQFRIE

The results in this text go back to the MegaScale stability set (Tsuboyama et al. 2023).

Variants of B1 are the subject of one data set. The experiment in a line: folding stability dG (cDNA display proteolysis); higher = more stable. The following applies: PBS, room temperature.
For the variant YLREAFRLYDKEGNGYISTDVMREILAELDETLSSEDLDAMIDEIDADGSGTVDFEEFMGVMT, the “folding stability dG” value worked out at 10.1 kJ/mol.

On to LLREAFRLYDKEGNGYISTDVMREILAELDETLSSEDLDAMIDEIDADGSGTVDFEEFMGVMT, for which the “folding stability dG” value was 9.15 kJ/mol. Consider ILREAFRLYDKEGNGYISTDVMREILAELDETLSSEDLDAMIDEIDADGSGTVDFEEFMGVMT, for which the “folding stability dG” value is 8.43 kJ/mol. Same read-out and setting: in the case of MLREAFRLYDKEGNGYISTDVMREILAELDETLSSEDLDAMIDEIDADGSGTVDFEEFMGVMT it was 8.47 kJ/mol. On the same count and under the same terms, in the case of SLREAFRLYDKEGNGYISTDVMREILAELDETLSSEDLDAMIDEIDADGSGTVDFEEFMGVMT it was 9.55 kJ/mol; in that of DLREAFRLYDKEGNGYISTDVMREILAELDETLSSEDLDAMIDEIDADGSGTVDFEEFMGVMT, 10.1 kJ/mol.

Take WLREAFRLYDKEGNGYISTDVMREILAELDETLSSEDLDAMIDEIDADGSGTVDFEEFMGVMT: the “folding stability dG” value is 11.1 kJ/mol. As to HLREAFRLYDKEGNGYISTDVMREILAELDETLSSEDLDAMIDEIDADGSGTVDFEEFMGVMT, the “folding stability dG” value amounted to 8.79 kJ/mol.

GLREAFRLYDKEGNGYISTDVMREILAELDETLSSEDLDAMIDEIDADGSGTVDFEEFMGVMT: the “folding stability dG” value is 8.49 kJ/mol.

Take VLREAFRLYDKEGNGYISTDVMREILAELDETLSSEDLDAMIDEIDADGSGTVDFEEFMGVMT: the “folding stability dG” value was 8.27 kJ/mol. With FLREAFRLYDKEGNGYISTDVMREILAELDETLSSEDLDAMIDEIDADGSGTVDFEEFMGVMT, the “folding stability dG” value amounted to 9.87 kJ/mol. Still for that read-out and setting: in the case of ALREAFRLYDKEGNGYISTDVMREILAELDETLSSEDLDAMIDEIDADGSGTVDFEEFMGVMT it was 9.59 kJ/mol; in that of NLREAFRLYDKEGNGYISTDVMREILAELDETLSSEDLDAMIDEIDADGSGTVDFEEFMGVMT, 9.43 kJ/mol.

With QLREAFRLYDKEGNGYISTDVMREILAELDETLSSEDLDAMIDEIDADGSGTVDFEEFMGVMT, the “folding stability dG” value stood at 8.72 kJ/mol. With TLREAFRLYDKEGNGYISTDVMREILAELDETLSSEDLDAMIDEIDADGSGTVDFEEFMGVMT, the “folding stability dG” value turned out to be 9.25 kJ/mol. Still for that read-out and setting: under RLREAFRLYDKEGNGYISTDVMREILAELDETLSSEDLDAMIDEIDADGSGTVDFEEFMGVMT stands 9.43 kJ/mol.

PLREAFRLYDKEGNGYISTDVMREILAELDETLSSEDLDAMIDEIDADGSGTVDFEEFMGVMT: the “folding stability dG” value turned out to be 7.7 kJ/mol.

With KLREAFRLYDKEGNGYISTDVMREILAELDETLSSEDLDAMIDEIDADGSGTVDFEEFMGVMT, the “folding stability dG” value amounted to 9.49 kJ/mol. On to ERREAFRLYDKEGNGYISTDVMREILAELDETLSSEDLDAMIDEIDADGSGTVDFEEFMGVMT, for which the “folding stability dG” value was found to be 1.42 kJ/mol.

EQREAFRLYDKEGNGYISTDVMREILAELDETLSSEDLDAMIDEIDADGSGTVDFEEFMGVMT: the “folding stability dG” value came out at 2.95 kJ/mol. The same measure, in the same setting: in the case of EHREAFRLYDKEGNGYISTDVMREILAELDETLSSEDLDAMIDEIDADGSGTVDFEEFMGVMT it was 4.83 kJ/mol; in that of EWREAFRLYDKEGNGYISTDVMREILAELDETLSSEDLDAMIDEIDADGSGTVDFEEFMGVMT, 11.1 kJ/mol; in that of EAREAFRLYDKEGNGYISTDVMREILAELDETLSSEDLDAMIDEIDADGSGTVDFEEFMGVMT, 5.16 kJ/mol.

Consider ENREAFRLYDKEGNGYISTDVMREILAELDETLSSEDLDAMIDEIDADGSGTVDFEEFMGVMT, for which the “folding stability dG” value was found to be 2.88 kJ/mol. Still for that read-out and setting: in the case of EGREAFRLYDKEGNGYISTDVMREILAELDETLSSEDLDAMIDEIDADGSGTVDFEEFMGVMT it was 2.72 kJ/mol; in that of EPREAFRLYDKEGNGYISTDVMREILAELDETLSSEDLDAMIDEIDADGSGTVDFEEFMGVMT, 3.04 kJ/mol; in that of ECREAFRLYDKEGNGYISTDVMREILAELDETLSSEDLDAMIDEIDADGSGTVDFEEFMGVMT, 11.4 kJ/mol. Still for that read-out and setting: under EIREAFRLYDKEGNGYISTDVMREILAELDETLSSEDLDAMIDEIDADGSGTVDFEEFMGVMT stands 6.34 kJ/mol; under EVREAFRLYDKEGNGYISTDVMREILAELDETLSSEDLDAMIDEIDADGSGTVDFEEFMGVMT, 4.77 kJ/mol.

Take EFREAFRLYDKEGNGYISTDVMREILAELDETLSSEDLDAMIDEIDADGSGTVDFEEFMGVMT: the “folding stability dG” value came out at 7.86 kJ/mol. Still for that read-out and setting: in the case of EEREAFRLYDKEGNGYISTDVMREILAELDETLSSEDLDAMIDEIDADGSGTVDFEEFMGVMT it was 2.84 kJ/mol. EDREAFRLYDKEGNGYISTDVMREILAELDETLSSEDLDAMIDEIDADGSGTVDFEEFMGVMT: the “folding stability dG” value stood at 3.64 kJ/mol. With EMREAFRLYDKEGNGYISTDVMREILAELDETLSSEDLDAMIDEIDADGSGTVDFEEFMGVMT, the “folding stability dG” value amounted to 7.26 kJ/mol. Still for that read-out and setting: under EYREAFRLYDKEGNGYISTDVMREILAELDETLSSEDLDAMIDEIDADGSGTVDFEEFMGVMT stands 8.19 kJ/mol; under ESREAFRLYDKEGNGYISTDVMREILAELDETLSSEDLDAMIDEIDADGSGTVDFEEFMGVMT, 2.21 kJ/mol; under ETREAFRLYDKEGNGYISTDVMREILAELDETLSSEDLDAMIDEIDADGSGTVDFEEFMGVMT, 2.49 kJ/mol. Still for that read-out and setting: in the case of EKREAFRLYDKEGNGYISTDVMREILAELDETLSSEDLDAMIDEIDADGSGTVDFEEFMGVMT it was 1.6 kJ/mol.

In another data set the parent is B2. The description is as above. The note with it: PBS, room temperature.
Take LTVHVGNVTYHFDNPEQAEEWAKRMAKKYQGQIHVKDGQFRTE: the “folding stability dG” value stood at 4.51 kJ/mol. On the same count and under the same terms, in the case of LTVHVGNVHYHFDNPEQAEEWAKRMAKKYQGQIHVKDGQFRIE it was 6.13 kJ/mol. Still for that read-out and setting: under LTVHVGNVTYHFDNPEKAEEWAKRMAKKYQGQIHVKDGQFRIE stands 6.82 kJ/mol. On to LTVHVGNVTYHDDNPEQAEEWAKRMAKKYQGQIHVKDGQFRIE, for which the “folding stability dG” value was -0.883 kJ/mol.

LTVHVGNVTYHMDNPEQAEEWAKRMAKKYQGQIHVKDGQFRIE: the “folding stability dG” value came out at 0.92 kJ/mol. On the same count and under the same terms, under LTVHVGNVTYHFDNPEQAEEWAKRMASKYQGQIHVKDGQFRIE stands 6.48 kJ/mol; under LTVHVGNVTYHFDNPEQAEEWAKRMAKKYQGQIHVKDGQFRIL, 7.38 kJ/mol; under LTVHAGNVTYHFDNPEQAEEWAKRMAKKYQGQIHVKDGQFRIE, 5.54 kJ/mol.
